1 molecule from US20250114467A1 (SHANGHAI FUDAN ZHANGJIANG BIO PHARMACEUTICAL, published 2025) can be followed below.

For assay [1], the target named is T1, human DLL4 (purchased from Acro, DL4-H5227) (human, UniProt Q9NR61 27-524).
T1 construct: Bought; also called hDLL4
The experiment in a line: ELISA, plate-coated protein 1 µg/ml. Here is the method:
The chimeric antibodies obtained in Example 6 were evaluated for their binding abilities to human DLL1 (purchased from Acro, DL1-H52H8) and DLL4 (purchased from Acro, DL4-H5227) proteins using the ELISA method. The ELISA detection method involved diluting DLL1 and DLL4 proteins with PBS to a final concentration of 1 μg/ml and coating them onto 384-well ELISA plates (purchased from Corning, 3700) at 4° C. overnight. The next day, the supernatant in the plate wells was discarded, and the wells were blocked with 80 μl of 3% milk (dissolved in PBS) for 2 hours, followed by washing three times with 80 μl of PBST (0.1% Tween20). […] After washing with 80 μl of PBST (0.1% Tween20) for five times, 25 μl of HRP-labeled goat anti-human secondary antibody (Jackson, 1:10000) was added to each well and incubated at room temperature for 1 hour, discard the supernatant, and the wells were then washed seven times with 80 μl of PBST (0.1% Tween20). After adding 25 μl of TMB chromogen solution for 10 minutes, the reaction was terminated with 2M HCl, and the absorbance value at 450 nm was measured with a Microplate reader (purchased from Biotek, Elx808). […] To assess the cross-reactivity of the antibodies with mouse and monkey DLL3, mouse DLL3-expressing plasmid pCMV3-mDLL3 (purchased from Beijing Yiqiao, MG58052-UT) and monkey DLL3-expressing plasmid pCMV3-rheDLL3 (purchased from Beijing Yiqiao, CG90919-UT) were used to construct overexpressing cell lines. The construction of overexpressing cells was as described in Examples 2-3. The binding abilities of the chimeric antibodies to these cells were determined by flow cytometry to assess the cross-reactivity of the antibodies with different species.

Assay [2] deals with T2, recombinant DLL3 protein (purchased from ACRO, DL3-H5255) (human, UniProt Q9NYJ7 27-479).
T2 construct: Bought; also called human DLL3 protein; hDLL3
T2 sequence (looked up): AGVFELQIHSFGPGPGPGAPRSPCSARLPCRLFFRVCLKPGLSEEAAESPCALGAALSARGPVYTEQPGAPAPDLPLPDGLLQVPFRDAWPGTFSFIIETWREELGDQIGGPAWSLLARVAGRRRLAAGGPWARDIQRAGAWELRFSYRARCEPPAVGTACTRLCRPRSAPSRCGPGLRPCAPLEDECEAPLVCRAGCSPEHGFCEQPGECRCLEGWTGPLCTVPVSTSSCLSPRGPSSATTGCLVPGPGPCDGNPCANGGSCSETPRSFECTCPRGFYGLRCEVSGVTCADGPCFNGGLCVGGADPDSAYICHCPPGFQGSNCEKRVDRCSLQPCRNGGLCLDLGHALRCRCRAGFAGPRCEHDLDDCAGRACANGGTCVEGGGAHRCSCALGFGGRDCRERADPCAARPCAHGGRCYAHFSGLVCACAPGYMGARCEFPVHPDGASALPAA
The experiment in a line: ELISA, plate-coated human DLL3 protein 1 µg/ml. An excerpt:
Six 6-week-old SPF grade female Balb/C mice (purchased from Shanghai Jihui Laboratory Animal Care Co., Ltd.) were selected and randomly divided into two groups, A and B. They were immunized with recombinant DLL3 protein (purchased from ACRO, DL3-H5255) at two-week intervals. Freund's complete adjuvant was used for the first immunization and Freund's incomplete adjuvant was used for subsequent immunizations. On days 35 and 49, blood samples were collected from the mice via orbital bleeding, and the immune serum titers of the mice were detected using conventional methods of ELISA and Flow Cytometry (FACS). ELISA detection method: DLL3 protein was diluted with PBS to a concentration of 1 μg/ml. 100 μl/well was added to a 96-well ELISA plate and incubated overnight at 4° C. The next day, the supernatant was discarded, and each well was blocked with 200 μl of 2% milk in PBS for 2 hours. After discarding the blocking solution, the wells were washed 3 times with 200 μl of PBST (0.1% Tween20). The serum to be detected was pre-diluted 100 times as the starting concentration, followed by a 3-fold gradient dilution across 11 concentrations, with 100 μl added to each well of the ELISA plate. After incubating at room temperature for 1 hour, the supernatant was discarded and the wells were washed 5 times with 200 μl of PBST (0.1% Tween20). Then, 100 μl of HRP-labeled goat anti-mouse secondary antibody (Jackson, 1:10000) was added and incubated at room temperature for 1 hour. After discarding the supernatant, the wells were washed 7 times with 200 μl of PBST (0.1% Tween20). 100 μl of TMB chromogen solution was added to each well for 10 minutes. The reaction was terminated with 2M HCl, and absorbance value at 450 nm was read with a Microplate Reader (purchased from Biotek, Elx808).
For the hybridoma clones with good binding and internalization activities identified in Example 5, the heavy chain variable region sequences were synthesized and cloned into the pFUSEss-CHIg-hG1 vector (purchased from InvivoGen, catalog number pfusess-hchgl) comprising the amino acid sequence of the human antibody IgG1 heavy chain constant region by homologous recombination.
A general note: In an ELISA, binding on a coated surface is turned into a signal by an enzyme label.

Assay [3] concerns the target T3, human DLL3, His tag (acrobiosystems, DL3-H52H4) (human, UniProt Q9NYJ7 27-492).
T3 construct: Bought; also called human DLL3 protein; free DLL3; not shown: His tag
T3 sequence (looked up): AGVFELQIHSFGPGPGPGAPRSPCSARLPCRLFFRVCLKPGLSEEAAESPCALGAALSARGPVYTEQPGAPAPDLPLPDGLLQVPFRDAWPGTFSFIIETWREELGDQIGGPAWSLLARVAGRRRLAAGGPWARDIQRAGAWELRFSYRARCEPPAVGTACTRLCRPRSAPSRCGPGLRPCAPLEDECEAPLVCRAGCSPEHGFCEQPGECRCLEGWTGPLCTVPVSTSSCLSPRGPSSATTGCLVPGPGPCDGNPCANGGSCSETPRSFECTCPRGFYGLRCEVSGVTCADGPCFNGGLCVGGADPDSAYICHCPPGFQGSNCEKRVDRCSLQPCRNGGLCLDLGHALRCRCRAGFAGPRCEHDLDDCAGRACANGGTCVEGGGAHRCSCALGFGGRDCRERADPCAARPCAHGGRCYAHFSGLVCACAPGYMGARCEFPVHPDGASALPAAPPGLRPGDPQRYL
The experiment in a line: BLI (Octet 96e), antibody on sensor, DLL3-His 100-3.13 nM in solution. As to the method: To assess the affinity of antibodies for human DLL3 protein, this study employed the BLI method to detect the binding kinetics curves of immobilized antibodies with free DLL3. The method was conducted according to the instrument's user manual (supplier: Fortebio, equipment model: Octet 96e). Briefly, AMC sensors were equilibrated for 60 s with Loading Buffer/Sample dilution buffer (1×PBS, pH7.4, with 0.1% BSA and 0.02% Tween-20) to obtain Baseline 1. The antibodies to be detected were diluted with Loading Buffer to a concentration of 10 ug/ml and bound to the equilibrated sensors, after which the sensors were re-equilibrated with Loading Buffer to obtain Baseline 2. The antibody-loaded sensors were then placed in human DLL3, His tag (supplier: acrobiosystems, catalog number: DL3-H52H4) diluted with Sample Dilution Buffer to concentrations ranging from 100 to 3.13 nM for 90 s to obtain the antibody-protein binding curve. Then, the sensors combined with antigen were placed in the Sample Dilution Buffer again and dissociated for 180 s, and the dissociation curve was obtained. The k-on and k-off values of the antibody-protein binding were calculated based on the binding and dissociation curves, and the KD values were calculated, with the results shown in Table 4.
Background: In BLI a coated tip is dipped into the sample, and binding shifts an interference pattern.

Usually EC50 stands for the midpoint of the concentration-response curve. The term Kd denotes the free concentration of one partner at which half of the binding sites on the other are occupied at equilibrium, for simple one-to-one binding. Read a high Kd as weaker binding. The koff is the first-order rate constant of dissociation. The low end stands for slow dissociation, the high end for fast dissociation. In general, kon refers to a measure of how fast the partners come together. High values mean faster complex formation, low ones slower complex formation.

T1 sequence (Q9NR61 27-524 limits assumed): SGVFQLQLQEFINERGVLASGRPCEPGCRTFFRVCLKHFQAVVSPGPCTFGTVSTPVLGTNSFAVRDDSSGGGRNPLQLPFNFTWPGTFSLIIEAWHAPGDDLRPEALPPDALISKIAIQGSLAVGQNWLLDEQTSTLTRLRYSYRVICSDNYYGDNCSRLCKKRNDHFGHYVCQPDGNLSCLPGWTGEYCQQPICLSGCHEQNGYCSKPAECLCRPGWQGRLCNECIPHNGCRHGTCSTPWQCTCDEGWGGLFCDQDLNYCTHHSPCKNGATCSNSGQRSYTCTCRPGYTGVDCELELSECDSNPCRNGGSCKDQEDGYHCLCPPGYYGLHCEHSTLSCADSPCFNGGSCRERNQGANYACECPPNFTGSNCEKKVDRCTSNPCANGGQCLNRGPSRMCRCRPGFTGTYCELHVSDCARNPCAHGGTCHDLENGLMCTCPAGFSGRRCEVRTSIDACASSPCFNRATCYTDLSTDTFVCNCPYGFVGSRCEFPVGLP

B1: ch4H7 (antibody, human IgG1, kappa, V domains shown)
VH: EVQLQQSGAELVRPGALVKLSCKASGFNFKDYYIHWVKQRPELGLEWIGWIDPENGNAIYDPKFQDKASITADTSSNTAYLHLSSLTSEGTAVYYCASEDAYYPFAYWGQGTLVTVSA
VL: DIVMSQSPSSLAVSVGEKVTMRCKSSQSLLYSSNQKNYLAWYQQKPGQSPKLLIYWASTRESGVPDRFTGSGSGTDFTLTISSVKAEDLAVYFCQQYYSYRTFGGGTKLEIKR
notes: Chimeric: murine variable regions on human IgG1 heavy and kappa light constant regions; also called chimeric antibody 4H7
With B1, the binding result in assay [1] was “no binding (tested: up to 20 µg/ml)”. In addition, the EC50 in assay [2] is 0.0115 µg/mL. In assay [3], the Kd was determined as 0.104 nM, the koff was determined as 0.000111 s⁻¹ and the kon was found to be 1.07e+06 M⁻¹ s⁻¹.
